Paper PMC7817217 (Proceedings of the National Academy of Sciences of the …, 2020)
Read-outs that look alike come from different tables or passages of the source.

Legend:
[1] = target: SARS-CoV-2 spike protein receptor binding domain (RBD) (SARS-CoV-2, UniProt P0DTC2 319-541); assay: SPR
[2] = target: SARS-CoV-2 spike protein receptor binding domain (RBD) (SARS-CoV-2, UniProt P0DTC2 319-541); assay: SPR; details: both partners purified
[3] = target: SARS-CoV-2 spike protein receptor binding domain (RBD) (SARS-CoV-2, UniProt P0DTC2 319-541); assay: SPR; details: both partners purified; remark: listed apart in the source
crystal structure = target: the molecule itself; assay: crystal structure

B1: bACE2 from Rhinolophus affinis (bACE2-Ra) (receptor)
chain: STTEDRAKIFLDNFNHEAEDLSYQSSLASWEYNTNISDENVQKMDEAGAKWSAFYEEQSKLAKNYPLEEIQTVPVKLQLQILQQSGSPVLSEDKSKRLNSILNAMSTIYSTGKVCKPNNPQECFLLEPGLDNIMGTSKDYNERLWAWEGWRAEVGKQLRPLYEEYVVLKNEMARGYHYEDYGDYWRRDYETEESSGSGYSRDQLMKDVDRIFTEIKPLYEHLHAYVRTKLMDTYPFHISPTGCLPAHLLGDMWGRFWTNLYPLTVPFGQKPNIDVTDAMVNQGWDANRIFKEAEKFFVSVGLPNMTEGFWNNSMLTEPGDGRKVVCHPTAWDLGKGDFRIKMCTKVTMEDFLTAHHEMGHIQYDMAYATQPYLLRNGANEGFHEAVGEVMSLSVATPKHLKTMGLLSPDFLEDNETEINFLLKQALNIVGTLPFTYMLEKWRWMVFRGEIPKEEWMKKWWEMKRDLVGVVEPVPHDETYCDPASLFHVANDYSFIRYYTRTIFEFQFHEALCRIAQHDGPLHKCDISNSTDAGKKLHQMLSVGKSQPWTVTLKDIVDSRNMDVGPLLRYFEPLYTWLQEQNRKSHVGWNTDWSPYSD
- Kd [1]: 0.44 µM

B2: bat ACE2 from Rhinolophus macrotis, expressed in insect cells (bACE2-Rm-insect) (domain or fragment)
chain: STTEDEAKKFLDKFNSKAEDLSYESSLASWDYNTNISDENVQKMDEAGAKWSAFYEEQSKLAKNYPLEEIQNDTVKRQLQILQQSGSPVLSEDKSKRLNSILNAMSTIYSTGKVCKPNNPQECLLLEPGLDNIMGTSKDYNERLWAWEGWRAEVGKQLRPLYEEYVVLKNEMARGYHYEDYGDYWRRDYETEESSGPGYSRDQLMKDVDRIFTEIKPLYEHLHAYVRAKLMDTYPLHISPTGCLPAHLLGDMWGRFWTNLYPLTVPFGQKPNIDVTDAMLNQGWDANRIFKEAEKFFVSVSLPKMTEGFWNKSMLTEPGDGRKVVCHPTAWDLGKGDFRIKMCTKVTMEDFLTAHHEMGHIQYDMAYASQPYLLRNGANEGFHEAVGEVMSLSVATPKHLKTMGLLSPDFREDDETEINFLLKQALNIVGTLPFTYMLEKWRWMVFKGEIPKEEWMKKWWEMKREIVGVVEPVPHDETYCDPASLFHVANDYSFIRYYTRTIFEFQFHEALCRIAQHNGPLHKCDISNSTDAGKKLHQMLSVGKSQAWTKTLEDIVDSRNMDVGPLLRYFKPLYTWLQEQNRKSYVGWNTDWSPYAD
- koff [2]: 0.0692 s⁻¹

B3: bat ACE2 from Rhinolophus macrotis fused to the mouse Fc tag (bACE2-Rm-mFc) (Fc fusion)
chain: B2 chain
- koff [2]: 0.137 s⁻¹

B4: bACE2-Rm residues 19 to 615 fused to the mouse Fc tag (bACE2-Rm-mFc) (Fc fusion)
chain: B2 chain
notes: also called bACE2-Rm-HEK293T cells; bACE2-Rm-WT
- Kd [3]: 2.78 µM

B5: bACE2-Rm (bat ACE2 from Rhinolophus macrotis) expressed in insect cells, residues 19 to 615 (domain or fragment)
chain: B2 chain
- Kd [3]: 1.5 µM

B6: bat ACE2 from Rhinolophus macrotis, expressed in E. coli and refolded (bACE2-Rm-E. coli) (domain or fragment)
chain: STTEDEAKKFLDKFNSKAEDLSYESSLASWDYNTNISDENVQKMDEAGAKWSAFYEEQSKLAKNYPLEEIQNDTVKRQLQILQQSGSPVLSEDKSKRLNSILNAMSTIYSTGKVCKPNNPQECLLLEPGLDNIMGTSKDYNERLWAWEGWRAEVGKQLRPLYEEYVVLKNEMARGYHYEDYGDYWRRDYETEESSGPGYSRDQLMKDVDRIFTEIKPLYEHLHAYVRAKLMDTYPLHISPTGCLPAHLLGDMWGRFWTNLYPLTVPFGQKPNIDVTDAMLNQGWDANRIFKEAEKFFVSVSLPKMTEGFWNKSMLTEPGDGRKVVCHPTAWDLGKGDFRIKMCTKVTMEDFLTAHHEMGHIQYDMAYASQPYLLRNGANEGFHEAVGEVMSLSVATPKHLKTMGLLSPDFREDDETEINFLLKQALNIVGTLPFTYMLEKWRWMVFKGEIPKEEWMKKWWEMKREIVGVVEPVPHDETYCDPASLFHVANDYSFIRYYTRTIFEFQFHEALCRIAQHNGPLHKCDISNSTDAGKKLHQMLSVGKSQAWTKTLEDIVDSRNMDVGPLLRYFKPLYTWLQEQNRKSYVGWNTDWSPYADQSIKVWISLKSALGEKAYEWNDNEMYLFRSSVAYAMREYFLKTKNQTILFGDENVWVSNLKPRISFNFHVTSPGNVSDIIPRPEVEGAIRMSRSRINDAFRLDDNSLEFLGIQPTLGPPYQPPVTI
- koff [2]: 0.132 s⁻¹
- kon [2]: 102000 M⁻¹ s⁻¹

B7: bACE2-Rm (bat ACE2 from Rhinolophus macrotis) expressed in E. coli, residues 19 to 741 (domain or fragment)
chain: B6 chain
notes: also called bACE2-Rm-E. coli; bat ACE2-E. coli
- Kd [3]: 1.3 µM
- binding result (crystal structure): binds
